Reference: publication PMC6054644

How the values were obtained:
[1] = target: rhodamine phalloidin F-actin (G-actin from Cytoskeleton, AKL99) (UniProt P68135); assay: ultrafast force-clamp spectroscopy (optical tweezers); single biotinylated myosin-5B on a streptavidin bead pedestal, single actin filament suspended between two trapped alpha-actinin beads; 25 mM MOPS pH 7.2, 25 mM KCl, 4 mM MgCl2, 1 mM EGTA, 2 uM CaM, 100 uM ATP; assistive and resistive forces 0.5-3 pN; no added Ca2+
[2] = target: F-actin from rabbit skeletal muscle acetone powder (rabbit) (UniProt P68135)

Row | k0^+ (detachment rate from actin, exponential fit extrapolated to zero force, resistive forces, 100 µM ATP) [1] | k0^− (detachment rate from actin, exponential fit extrapolated to zero force, assistive forces, 100 µM ATP) [1] | actin-activated steady-state ATPase activity (NADH-coupled assay), Kapp for F-actin at 2000 µM ATP [2] | Substance
1 | 0.64 s⁻¹ | 2.3 s⁻¹ | – | biotinylated Avi-tag myosin-5B heavy meromyosin with bound calmodulin (from UniProt P21271 1-1095; P0DP29 1-149) (complex)
2 | – | – | 1.34 µM | myosin-5B heavy meromyosin with bound calmodulin (Flag-tagged) (from UniProt P21271 1-1095; P0DP29 1-149) (complex)
